From patent publication US20050276799A1 (PDL BIOPHARMA, published 2005)

Experiments:
[1] = target: T1, recombinant, GPI-linked human FcRn on cell line NS0 HuFcRn (memb), clone 7-3 (human, UniProt P55899 24-297; P61769 21-119); experiment: IC50 of wild-type / IC50 of this antibody, same assay
T1 construct: Expressed from pDL208 on the surface of NS0 cells; also called human neonatal Fc receptor; not shown: human c-myc decapeptide flanked by linker peptides, then GPI linkage signal of human decay accelerating factor (vector p)

[2] = target: T1, recombinant, GPI-linked human FcRn on …; experiment: competition FACS vs biotinylated HuEP5C7-IgG2M3 on NS0 cells expressing human FcRn, FSB pH 6.0

B1: OST577-IgG2M3 L314A (antibody)
heavy: QVQLVESGGGVVQPGRSLRLSCAASGFTFSRYGMHWVRQAPGKGLEWVAVISYDGSNKWYADSVKGRFTISRDNSKNTLFLQMHSLRAADTGVYFCAKDQLYFGSQSPGHYWGQGTLVTVSSASTKGPSVFPLAPCSRSTSESTAALGCLVKDYFPEPVTVSWNSGALTSGVHTFPAVLQSSGLYSLSSVVTVPSSNFGTQTYTCNVDHKPSNTKVDKTVERKCCVECPPCPAPPAAAPSVFLFPPKPKDTLMISRTPEVTCVVVDVSHEDPEVQFNWYVDGVEVHNAKTKPREEQFNSTFRVVSVLTVVHQDWANGKEYKCKVSNKGLPAPIEKTISKTKGQPREPQVYTLPPSREEMTKNQVSLTCLVKGFYPSDIAVEWESNGQPENNYKTTPPMLDSDGSFFLYSKLTVDKSRWQQGNVFSCSVMHEALHNHYTQKSLSLSPSK
light: SYVLTQPPSVSVAPGQTARITCGGDNIGSKSVNWFQQKPGQAPVLVVYDDNERPSGISERFSGSNSGNTATLTISRVEAGDEADYYCQVWDSSSDHVVFGGGTKLTVLGQPKAAPSVTLFPPSSEELQANKATLVCLISDFYPGAVTVAWKADSSPVKAGVETTTPSKQSNNKYAASSYLSLTPEQWKSHRSYSCQVTHEGSTVEKTVAPTECS
Q: What does the source list for B1?
A: Relative Binding [1]: 0.16 ratio; IC50 [2]: 68.7 µg/mL

B2: OST577-IgG2M3 T250D (antibody)
heavy: QVQLVESGGGVVQPGRSLRLSCAASGFTFSRYGMHWVRQAPGKGLEWVAVISYDGSNKWYADSVKGRFTISRDNSKNTLFLQMHSLRAADTGVYFCAKDQLYFGSQSPGHYWGQGTLVTVSSASTKGPSVFPLAPCSRSTSESTAALGCLVKDYFPEPVTVSWNSGALTSGVHTFPAVLQSSGLYSLSSVVTVPSSNFGTQTYTCNVDHKPSNTKVDKTVERKCCVECPPCPAPPAAAPSVFLFPPKPKDDLMISRTPEVTCVVVDVSHEDPEVQFNWYVDGVEVHNAKTKPREEQFNSTFRVVSVLTVVHQDWLNGKEYKCKVSNKGLPAPIEKTISKTKGQPREPQVYTLPPSREEMTKNQVSLTCLVKGFYPSDIAVEWESNGQPENNYKTTPPMLDSDGSFFLYSKLTVDKSRWQQGNVFSCSVMHEALHNHYTQKSLSLSPSK
light: SYVLTQPPSVSVAPGQTARITCGGDNIGSKSVNWFQQKPGQAPVLVVYDDNERPSGISERFSGSNSGNTATLTISRVEAGDEADYYCQVWDSSSDHVVFGGGTKLTVLGQPKAAPSVTLFPPSSEELQANKATLVCLISDFYPGAVTVAWKADSSPVKAGVETTTPSKQSNNKYAASSYLSLTPEQWKSHRSYSCQVTHEGSTVEKTVAPTECS
Q: Which “Relative Binding” value [1] does the source give for B2 here?
A: < 0.05 ratio

B3: OST577-IgG2M3 M428G (antibody)
heavy: QVQLVESGGGVVQPGRSLRLSCAASGFTFSRYGMHWVRQAPGKGLEWVAVISYDGSNKWYADSVKGRFTISRDNSKNTLFLQMHSLRAADTGVYFCAKDQLYFGSQSPGHYWGQGTLVTVSSASTKGPSVFPLAPCSRSTSESTAALGCLVKDYFPEPVTVSWNSGALTSGVHTFPAVLQSSGLYSLSSVVTVPSSNFGTQTYTCNVDHKPSNTKVDKTVERKCCVECPPCPAPPAAAPSVFLFPPKPKDTLMISRTPEVTCVVVDVSHEDPEVQFNWYVDGVEVHNAKTKPREEQFNSTFRVVSVLTVVHQDWLNGKEYKCKVSNKGLPAPIEKTISKTKGQPREPQVYTLPPSREEMTKNQVSLTCLVKGFYPSDIAVEWESNGQPENNYKTTPPMLDSDGSFFLYSKLTVDKSRWQQGNVFSCSVGHEALHNHYTQKSLSLSPSK
light: SYVLTQPPSVSVAPGQTARITCGGDNIGSKSVNWFQQKPGQAPVLVVYDDNERPSGISERFSGSNSGNTATLTISRVEAGDEADYYCQVWDSSSDHVVFGGGTKLTVLGQPKAAPSVTLFPPSSEELQANKATLVCLISDFYPGAVTVAWKADSSPVKAGVETTTPSKQSNNKYAASSYLSLTPEQWKSHRSYSCQVTHEGSTVEKTVAPTECS
Q: Which results are given for B3?
A: Relative Binding [1]: 0.072 ratio; IC50 [2]: 147 µg/mL

B4: OST577-IgG2M3 L314W (antibody)
heavy: QVQLVESGGGVVQPGRSLRLSCAASGFTFSRYGMHWVRQAPGKGLEWVAVISYDGSNKWYADSVKGRFTISRDNSKNTLFLQMHSLRAADTGVYFCAKDQLYFGSQSPGHYWGQGTLVTVSSASTKGPSVFPLAPCSRSTSESTAALGCLVKDYFPEPVTVSWNSGALTSGVHTFPAVLQSSGLYSLSSVVTVPSSNFGTQTYTCNVDHKPSNTKVDKTVERKCCVECPPCPAPPAAAPSVFLFPPKPKDTLMISRTPEVTCVVVDVSHEDPEVQFNWYVDGVEVHNAKTKPREEQFNSTFRVVSVLTVVHQDWWNGKEYKCKVSNKGLPAPIEKTISKTKGQPREPQVYTLPPSREEMTKNQVSLTCLVKGFYPSDIAVEWESNGQPENNYKTTPPMLDSDGSFFLYSKLTVDKSRWQQGNVFSCSVMHEALHNHYTQKSLSLSPSK
light: SYVLTQPPSVSVAPGQTARITCGGDNIGSKSVNWFQQKPGQAPVLVVYDDNERPSGISERFSGSNSGNTATLTISRVEAGDEADYYCQVWDSSSDHVVFGGGTKLTVLGQPKAAPSVTLFPPSSEELQANKATLVCLISDFYPGAVTVAWKADSSPVKAGVETTTPSKQSNNKYAASSYLSLTPEQWKSHRSYSCQVTHEGSTVEKTVAPTECS
Q: Which “Relative Binding” value [1] does the source give for B4 here?
A: 0.53 ratio

Q: What about the IC50 [2] of the same binder?
A: 20.2 µg/mL

B5: OST577-IgG2M3 L314R (antibody)
heavy: QVQLVESGGGVVQPGRSLRLSCAASGFTFSRYGMHWVRQAPGKGLEWVAVISYDGSNKWYADSVKGRFTISRDNSKNTLFLQMHSLRAADTGVYFCAKDQLYFGSQSPGHYWGQGTLVTVSSASTKGPSVFPLAPCSRSTSESTAALGCLVKDYFPEPVTVSWNSGALTSGVHTFPAVLQSSGLYSLSSVVTVPSSNFGTQTYTCNVDHKPSNTKVDKTVERKCCVECPPCPAPPAAAPSVFLFPPKPKDTLMISRTPEVTCVVVDVSHEDPEVQFNWYVDGVEVHNAKTKPREEQFNSTFRVVSVLTVVHQDWRNGKEYKCKVSNKGLPAPIEKTISKTKGQPREPQVYTLPPSREEMTKNQVSLTCLVKGFYPSDIAVEWESNGQPENNYKTTPPMLDSDGSFFLYSKLTVDKSRWQQGNVFSCSVMHEALHNHYTQKSLSLSPSK
light: SYVLTQPPSVSVAPGQTARITCGGDNIGSKSVNWFQQKPGQAPVLVVYDDNERPSGISERFSGSNSGNTATLTISRVEAGDEADYYCQVWDSSSDHVVFGGGTKLTVLGQPKAAPSVTLFPPSSEELQANKATLVCLISDFYPGAVTVAWKADSSPVKAGVETTTPSKQSNNKYAASSYLSLTPEQWKSHRSYSCQVTHEGSTVEKTVAPTECS
Q: What does the source list for B5?
A: Relative Binding [1]: 0.11 ratio; IC50 [2]: 102 µg/mL

B6: OST577-IgG2M3 L314Q (antibody)
heavy: QVQLVESGGGVVQPGRSLRLSCAASGFTFSRYGMHWVRQAPGKGLEWVAVISYDGSNKWYADSVKGRFTISRDNSKNTLFLQMHSLRAADTGVYFCAKDQLYFGSQSPGHYWGQGTLVTVSSASTKGPSVFPLAPCSRSTSESTAALGCLVKDYFPEPVTVSWNSGALTSGVHTFPAVLQSSGLYSLSSVVTVPSSNFGTQTYTCNVDHKPSNTKVDKTVERKCCVECPPCPAPPAAAPSVFLFPPKPKDTLMISRTPEVTCVVVDVSHEDPEVQFNWYVDGVEVHNAKTKPREEQFNSTFRVVSVLTVVHQDWQNGKEYKCKVSNKGLPAPIEKTISKTKGQPREPQVYTLPPSREEMTKNQVSLTCLVKGFYPSDIAVEWESNGQPENNYKTTPPMLDSDGSFFLYSKLTVDKSRWQQGNVFSCSVMHEALHNHYTQKSLSLSPSK
light: SYVLTQPPSVSVAPGQTARITCGGDNIGSKSVNWFQQKPGQAPVLVVYDDNERPSGISERFSGSNSGNTATLTISRVEAGDEADYYCQVWDSSSDHVVFGGGTKLTVLGQPKAAPSVTLFPPSSEELQANKATLVCLISDFYPGAVTVAWKADSSPVKAGVETTTPSKQSNNKYAASSYLSLTPEQWKSHRSYSCQVTHEGSTVEKTVAPTECS
Q: Which results are given for B6?
A: Relative Binding [1]: 0.33 ratio; IC50 [2]: 32 µg/mL
